From US20050070470A1 (ADMINISTRATORS OF THE TULANE EDUCATIONAL FUND, published 2005)
*1 amine or outer side, *2 acyl side, *3 side chain or, on linkers, in order; H or OH if unused. Bridges are numbered along the chain shown (N, C = ends). Where no end group is shown, it is not given here. [ ]: non-standard residue; d: D form. MTXCOO‑CH2CO = methotrexate-acetyl; 4Pal = N[C@@H](Cc1ccncc1)C(=O)O; Suc = O=C(CCC(=O)[*:2])[*:1]; hSer = N[C@@H](CCO)C(=O)O; Nle = CCCC[C@H](N)C(=O)O; Nva = CCC[C@H](N)C(=O)O; Abu = CC[C@H](N)C(=O)O

B1: D-Ser-D-Ser-D-Ser-D-Ser-D-Ser-L-Lys-D-Tyr-D-Ser-cyclo[L-Cys-L-Phe-D-Trp-L-Lys-L-Thr-L-Cys]-L-Thr-NH2 (peptide)
peptide: [dS][dS][dS][dS][dS]K[dY][dS]CF[dW]KTCT-NH2
modifications: disulfide 9-14; not fully specified; printed as D-Ser-D-Ser-D-Ser-D-Ser-D-Ser-L-Lys-D-Tyr-D-Ser-cyclo[L-Cys-L-Phe-D-Trp-L-Lys-L-Thr-L-Cys]-L-Thr-NH2
B2: D-Ser-D-Ser-D-Ser-D-Gln-D-Ser-D-Ser-D-Ser-D-Gln-D-Ser-D-Ser-D-Ser-D-Gln-L-Norvaline-D-Tyr-D-Ser-cyclo[L-Cys-L-Phe-D-Trp-L-Lys-L-Thr-L-Cys]-L-Thr-NH2 (peptide)
peptide: [dS][dS][dS][dQ][dS][dS][dS][dQ][dS][dS][dS][dQ][Nva][dY][dS]CF[dW]KTCT-NH2
modifications: disulfide 16-21; N-terminus assumed
SMILES: CCC[C@H](NC(=O)[C@@H](CCC(N)=O)NC(=O)[C@@H](CO)NC(=O)[C@@H](CO)NC(=O)[C@@H](CO)NC(=O)[C@@H](CCC(N)=O)NC(=O)[C@@H](CO)NC(=O)[C@@H](CO)NC(=O)[C@@H](CO)NC(=O)[C@@H](CCC(N)=O)NC(=O)[C@@H](CO)NC(=O)[C@@H](CO)NC(=O)[C@H](N)CO)C(=O)N[C@H](Cc1ccc(O)cc1)C(=O)N[C@H](CO)C(=O)N[C@H]1CSSC[C@@H](C(=O)N[C@H](C(N)=O)[C@@H](C)O)NC(=O)[C@H]([C@@H](C)O)NC(=O)[C@H](CCCCN)NC(=O)[C@@H](Cc2c[nH]c3ccccc23)NC(=O)[C@H](Cc2ccccc2)NC1=O
B3: D-Ser-D-Ser-D-Ser-D-Ser-D-Ser-L-Norleucine-D-Tyr-D-Ser-cyclo[L-Cys-L-Phe-D-Trp-L-Lys-L-Thr-L-Cys]-L-Thr-NH2 (peptide)
peptide: [dS][dS][dS][dS][dS][Nle][dY][dS]CF[dW]KTCT-NH2
modifications: disulfide 9-14; N-terminus assumed
SMILES: CCCC[C@H](NC(=O)[C@@H](CO)NC(=O)[C@@H](CO)NC(=O)[C@@H](CO)NC(=O)[C@@H](CO)NC(=O)[C@H](N)CO)C(=O)N[C@H](Cc1ccc(O)cc1)C(=O)N[C@H](CO)C(=O)N[C@H]1CSSC[C@@H](C(=O)N[C@H](C(N)=O)[C@@H](C)O)NC(=O)[C@H]([C@@H](C)O)NC(=O)[C@H](CCCCN)NC(=O)[C@@H](Cc2c[nH]c3ccccc23)NC(=O)[C@H](Cc2ccccc2)NC1=O
B4: Succinate-D-Asp-D-Ser-D-Ser-D-Ser-D-Ser-D-Ser-L-Thr-D-Tyr-D-Ser-cyclo[L-Cys-L-Phe-D-Trp-L-Lys-L-Thr-L-Cys]-L-Thr-NH2 (peptide)
peptide: Suc-[dD][dS][dS][dS][dS][dS]T[dY][dS]CF[dW]KTCT-NH2
modifications: disulfide 10-15
SMILES: C[C@@H](O)[C@H](NC(=O)[C@@H]1CSSC[C@H](NC(=O)[C@@H](CO)NC(=O)[C@@H](Cc2ccc(O)cc2)NC(=O)[C@@H](NC(=O)[C@@H](CO)NC(=O)[C@@H](CO)NC(=O)[C@@H](CO)NC(=O)[C@@H](CO)NC(=O)[C@@H](CO)NC(=O)[C@@H](CC(=O)O)NC(=O)CCC(=O)O)[C@@H](C)O)C(=O)N[C@@H](Cc2ccccc2)C(=O)N[C@H](Cc2c[nH]c3ccccc23)C(=O)N[C@@H](CCCCN)C(=O)N[C@@H]([C@@H](C)O)C(=O)N1)C(N)=O
B5: D-Ser-D-Ser-D-Ser-D-Ser-D-Ser-L-Gln-D-Tyr-D-Ser-cyclo[L-Cys-L-Phe-D-Trp-L-Lys-L-Thr-L-Cys]-L-Thr-NH2 (peptide)
peptide: [dS][dS][dS][dS][dS]Q[dY][dS]CF[dW]KTCT-NH2
modifications: disulfide 9-14; N-terminus assumed
SMILES: C[C@@H](O)[C@H](NC(=O)[C@@H]1CSSC[C@H](NC(=O)[C@@H](CO)NC(=O)[C@@H](Cc2ccc(O)cc2)NC(=O)[C@H](CCC(N)=O)NC(=O)[C@@H](CO)NC(=O)[C@@H](CO)NC(=O)[C@@H](CO)NC(=O)[C@@H](CO)NC(=O)[C@H](N)CO)C(=O)N[C@@H](Cc2ccccc2)C(=O)N[C@H](Cc2c[nH]c3ccccc23)C(=O)N[C@@H](CCCCN)C(=O)N[C@@H]([C@@H](C)O)C(=O)N1)C(N)=O
B6: D-Ser-D-Ser-D-Ser-D-Ser-D-Ser-L-4Pal-D-Tyr-D-Ser-cyclo[L-Cys-L-Phe-D-Trp-L-Lys-L-Thr-L-Cys]-L-Thr-NH2 (peptide)
peptide: [dS][dS][dS][dS][dS][4Pal][dY][dS]CF[dW]KTCT-NH2
modifications: disulfide 9-14; N-terminus assumed
SMILES: C[C@@H](O)[C@H](NC(=O)[C@@H]1CSSC[C@H](NC(=O)[C@@H](CO)NC(=O)[C@@H](Cc2ccc(O)cc2)NC(=O)[C@H](Cc2ccncc2)NC(=O)[C@@H](CO)NC(=O)[C@@H](CO)NC(=O)[C@@H](CO)NC(=O)[C@@H](CO)NC(=O)[C@H](N)CO)C(=O)N[C@@H](Cc2ccccc2)C(=O)N[C@H](Cc2c[nH]c3ccccc23)C(=O)N[C@@H](CCCCN)C(=O)N[C@@H]([C@@H](C)O)C(=O)N1)C(N)=O
B7: D-Ser-D-Ser-D-Ser-D-Ser-D-Ser-L-Lys-D-Tyr-D-Tyr-cyclo[L-Cys-L-Phe-D-Trp-L-Lys-L-Thr-L-Cys]-L-Thr-NH2 (peptide)
peptide: [dS][dS][dS][dS][dS]K[dY][dY]CF[dW]KTCT-NH2
modifications: disulfide 9-14; N-terminus assumed
SMILES: C[C@@H](O)[C@H](NC(=O)[C@@H]1CSSC[C@H](NC(=O)[C@@H](Cc2ccc(O)cc2)NC(=O)[C@@H](Cc2ccc(O)cc2)NC(=O)[C@H](CCCCN)NC(=O)[C@@H](CO)NC(=O)[C@@H](CO)NC(=O)[C@@H](CO)NC(=O)[C@@H](CO)NC(=O)[C@H](N)CO)C(=O)N[C@@H](Cc2ccccc2)C(=O)N[C@H](Cc2c[nH]c3ccccc23)C(=O)N[C@@H](CCCCN)C(=O)N[C@@H]([C@@H](C)O)C(=O)N1)C(N)=O
B8: D-Ser-D-Ser-D-Ser-D-Ser-D-Ser-L-Thr-D-Tyr-D-Ser-cyclo[L-Cys-L-Phe-D-Trp-L-Lys-L-Thr-L-Cys]-L-Thr-NH2 (peptide)
peptide: [dS][dS][dS][dS][dS]T[dY][dS]CF[dW]KTCT-NH2
modifications: disulfide 9-14; N-terminus assumed
SMILES: C[C@@H](O)[C@H](NC(=O)[C@@H]1CSSC[C@H](NC(=O)[C@@H](CO)NC(=O)[C@@H](Cc2ccc(O)cc2)NC(=O)[C@@H](NC(=O)[C@@H](CO)NC(=O)[C@@H](CO)NC(=O)[C@@H](CO)NC(=O)[C@@H](CO)NC(=O)[C@H](N)CO)[C@@H](C)O)C(=O)N[C@@H](Cc2ccccc2)C(=O)N[C@H](Cc2c[nH]c3ccccc23)C(=O)N[C@@H](CCCCN)C(=O)N[C@@H]([C@@H](C)O)C(=O)N1)C(N)=O
B9: D-Gln-D-Gln-D-Gln-D-Gln-D-Gln-D-Gln-D-Gln-D-Gln-D-Gln-D-Gln-L-Lys-D-Tyr-D-Tyr-cyclo[L-Cys-L-Phe-D-Trp-L-Lys-L-Thr-L-Cys]-L-Thr-NH2 (peptide)
peptide: [dQ][dQ][dQ][dQ][dQ][dQ][dQ][dQ][dQ][dQ]K[dY][dY]CF[dW]KTCT-NH2
modifications: disulfide 14-19; N-terminus assumed
SMILES: C[C@@H](O)[C@H](NC(=O)[C@@H]1CSSC[C@H](NC(=O)[C@@H](Cc2ccc(O)cc2)NC(=O)[C@@H](Cc2ccc(O)cc2)NC(=O)[C@H](CCCCN)NC(=O)[C@@H](CCC(N)=O)NC(=O)[C@@H](CCC(N)=O)NC(=O)[C@@H](CCC(N)=O)NC(=O)[C@@H](CCC(N)=O)NC(=O)[C@@H](CCC(N)=O)NC(=O)[C@@H](CCC(N)=O)NC(=O)[C@@H](CCC(N)=O)NC(=O)[C@@H](CCC(N)=O)NC(=O)[C@@H](CCC(N)=O)NC(=O)[C@H](N)CCC(N)=O)C(=O)N[C@@H](Cc2ccccc2)C(=O)N[C@H](Cc2c[nH]c3ccccc23)C(=O)N[C@@H](CCCCN)C(=O)N[C@@H]([C@@H](C)O)C(=O)N1)C(N)=O
B10: D-Ser-D-Ser-D-Ser-D-Ser-D-Ser-L-hSer-D-Tyr-D-Ser-cyclo[L-Cys-L-Phe-D-Trp-L-Lys-L-Thr-L-Cys]-L-Thr-NH2 (peptide)
peptide: [dS][dS][dS][dS][dS][hSer][dY][dS]CF[dW]KTCT-NH2
modifications: disulfide 9-14; N-terminus assumed
SMILES: C[C@@H](O)[C@H](NC(=O)[C@@H]1CSSC[C@H](NC(=O)[C@@H](CO)NC(=O)[C@@H](Cc2ccc(O)cc2)NC(=O)[C@H](CCO)NC(=O)[C@@H](CO)NC(=O)[C@@H](CO)NC(=O)[C@@H](CO)NC(=O)[C@@H](CO)NC(=O)[C@H](N)CO)C(=O)N[C@@H](Cc2ccccc2)C(=O)N[C@H](Cc2c[nH]c3ccccc23)C(=O)N[C@@H](CCCCN)C(=O)N[C@@H]([C@@H](C)O)C(=O)N1)C(N)=O
B11: D-Ser-D-Ser-D-Ser-D-Ser-D-Ser-L-Asp-D-Tyr-D-Ser-cyclo[L-Cys-L-Phe-D-Trp-L-Lys-L-Thr-L-Cys]-L-Thr-NH2 (peptide)
peptide: [dS][dS][dS][dS][dS]D[dY][dS]CF[dW]KTCT-NH2
modifications: disulfide 9-14; N-terminus assumed
SMILES: C[C@@H](O)[C@H](NC(=O)[C@@H]1CSSC[C@H](NC(=O)[C@@H](CO)NC(=O)[C@@H](Cc2ccc(O)cc2)NC(=O)[C@H](CC(=O)O)NC(=O)[C@@H](CO)NC(=O)[C@@H](CO)NC(=O)[C@@H](CO)NC(=O)[C@@H](CO)NC(=O)[C@H](N)CO)C(=O)N[C@@H](Cc2ccccc2)C(=O)N[C@H](Cc2c[nH]c3ccccc23)C(=O)N[C@@H](CCCCN)C(=O)N[C@@H]([C@@H](C)O)C(=O)N1)C(N)=O

biological target: somatostatin subtype 2 rat receptor (rat, UniProt P30680 1-369); experiment: cell-based or functional assay
Sequence (P30680 whole entry): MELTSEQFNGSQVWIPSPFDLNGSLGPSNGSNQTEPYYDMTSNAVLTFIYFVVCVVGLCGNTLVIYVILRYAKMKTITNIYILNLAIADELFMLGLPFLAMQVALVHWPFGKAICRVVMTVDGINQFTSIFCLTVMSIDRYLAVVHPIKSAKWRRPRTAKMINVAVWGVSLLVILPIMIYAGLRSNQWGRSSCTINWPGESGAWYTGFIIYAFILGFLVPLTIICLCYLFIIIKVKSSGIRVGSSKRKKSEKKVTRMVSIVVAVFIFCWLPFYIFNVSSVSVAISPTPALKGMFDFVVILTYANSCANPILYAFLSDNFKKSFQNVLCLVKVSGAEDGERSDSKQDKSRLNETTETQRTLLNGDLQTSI

Binder | IC50 (nM), inhibition of GH release from primary cultures of rat pituitary cells
mercaptoacetate-GG[dD][dS][dS][dS][dS][dS][4Pal][dY][dS]CF[dW]KTCT-NH2 (disulfide 12-17) | 0.97 nM
B1 | 0.086 nM
succinate-[dD][dS][dS][dS][dS][dS][Nle][dY][dS]CF[dW]KTCT-NH2 (disulfide 10-15) | 0.52 nM
{MTXCOO‑CH2CO}-[dK][dY]K[dY][dK]CF[dW]KTCT-NH2 (cysteine pairing not given here) [MTXCOO-CH2CO-D-Lys-D-Tyr-Lys-D-Tyr-D-Lys-Cys-Phe-D-Trp-Lys-Thr-Cys-Thr-NH2] | 0.62 nM
B2 | 0.93 nM
B3 | 0.094 nM
B4 | 5.17 nM
succinate-[dS][dS][dS][dS][dS][Abu][dY][dS]CF[dW]KTCT-NH2 (disulfide 9-14) | 0.61 nM
B5 | 0.45 nM
B6 | 0.18 nM
B7 | 0.14 nM
B8 | 0.72 nM
B9 | 0.24 nM
Succinate-[dS][dS][dS][dS][dS]S[dY][dS]CF[dW]KTCT-NH2 (disulfide 9-14) | 5.6 nM
{3‑N,N‑dimethylaminobenzoyl}-[dS][dS][dS][dS][dS][dS][dS][dS][dS][dS][dS][dS][dS][dS][dS]K[dY][dY]CF[dW]KTCT-NH2 (disulfide 19-24) | 0.27 nM
B10 | 0.55 nM
{MTXCOO‑CH2CO}-[dS][dS][dS][dS][dS]K[dY][dY]CF[dW]KTCT-NH2 (cysteine pairing not given here) [MTXCOO-CH2CO-(D-Ser)5-Lys-D-Tyr-D-Tyr-Cys-Phe-D-Trp-Lys-Thr-Cys-Thr-NH2] | 0.16 nM
B11 | 7.55 nM
